Results as given in article PMC8647860 (Nature, 2021).

Tests used:
[1] = target: Glycine receptor β subunit (native heteromeric GlyR, 4α:1β) (Sus scrofa, UniProt A0A4X1TUM3+Q6KBX4); experiment: cryo-EM structure; type: binding
[2] = target: recombinant pig GlyR α1 subunit without fluorophore (pig); experiment: cryo-EM structure
[3] = target: T1, recombinant pig GlyR α1 subunit tagged with YFP (pig); experiment: SEC
T1 chain: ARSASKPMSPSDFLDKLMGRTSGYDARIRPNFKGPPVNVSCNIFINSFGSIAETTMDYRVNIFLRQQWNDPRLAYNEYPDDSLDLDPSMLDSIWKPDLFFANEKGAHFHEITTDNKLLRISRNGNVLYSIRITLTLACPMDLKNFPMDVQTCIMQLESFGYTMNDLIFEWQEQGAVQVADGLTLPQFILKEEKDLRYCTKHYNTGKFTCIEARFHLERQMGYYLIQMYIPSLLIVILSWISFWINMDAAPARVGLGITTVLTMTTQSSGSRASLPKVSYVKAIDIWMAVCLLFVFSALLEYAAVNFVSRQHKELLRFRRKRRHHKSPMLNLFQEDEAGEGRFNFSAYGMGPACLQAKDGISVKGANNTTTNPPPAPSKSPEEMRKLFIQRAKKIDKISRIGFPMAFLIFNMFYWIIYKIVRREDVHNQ

[4] = target: T2, recombinant pig GlyR α1 subunit without fluorophore (pig); experiment: cryo-EM structure
T2 chain: T1 chain

For NCC(=O)O [glycine], which “cryo-EM structure (2.7 Å)” value [1] is on record?
Its value is “formed between the hydroxyl moiety of βY231 and the carboxyl group of glycine”.

How did the stoichiometry N (α subunits per β subunit) [2] turn out when “recombinant pig GlyR β subunit without fluorophore (receptor)” was run?
The stoichiometry N (α subunits per β subunit) was 4.

B1: anti-GlyR α 3D1 Fab (Fab, V domains shown)
VH: QVQLQQSGAELMKPGAAVKISCKATGHTISRYWIDWLKQRPGHGLEWIGEILPGSGSTNYNEKFKGKATFTAEKSSNTAYMQLSSLTSEDSAVYYCAMGVRGNYFDYWGQGTTLTVSS
VL: DIVMTQSHKFMSTSVGDRVSITCKASQDVSTAVAWYQQKPGQSPKLLIYWASTRHTGVPGRFTGSGSGTDYTLTISSVQAEDLSLYYCQQHYSTPRTFGGGTKLEIK
Which results are given for B1?
binding result [3]: binds; binding result [4]: binds
